# In PMC5665649 (eLife, 2017):
# Where two headings read alike, the source gives them in different places.
# T1: GluK5 amino terminal domain (ATD), DyLight 488-labeled
# T1 sequence (Q63273 whole entry, species assumed, looked up): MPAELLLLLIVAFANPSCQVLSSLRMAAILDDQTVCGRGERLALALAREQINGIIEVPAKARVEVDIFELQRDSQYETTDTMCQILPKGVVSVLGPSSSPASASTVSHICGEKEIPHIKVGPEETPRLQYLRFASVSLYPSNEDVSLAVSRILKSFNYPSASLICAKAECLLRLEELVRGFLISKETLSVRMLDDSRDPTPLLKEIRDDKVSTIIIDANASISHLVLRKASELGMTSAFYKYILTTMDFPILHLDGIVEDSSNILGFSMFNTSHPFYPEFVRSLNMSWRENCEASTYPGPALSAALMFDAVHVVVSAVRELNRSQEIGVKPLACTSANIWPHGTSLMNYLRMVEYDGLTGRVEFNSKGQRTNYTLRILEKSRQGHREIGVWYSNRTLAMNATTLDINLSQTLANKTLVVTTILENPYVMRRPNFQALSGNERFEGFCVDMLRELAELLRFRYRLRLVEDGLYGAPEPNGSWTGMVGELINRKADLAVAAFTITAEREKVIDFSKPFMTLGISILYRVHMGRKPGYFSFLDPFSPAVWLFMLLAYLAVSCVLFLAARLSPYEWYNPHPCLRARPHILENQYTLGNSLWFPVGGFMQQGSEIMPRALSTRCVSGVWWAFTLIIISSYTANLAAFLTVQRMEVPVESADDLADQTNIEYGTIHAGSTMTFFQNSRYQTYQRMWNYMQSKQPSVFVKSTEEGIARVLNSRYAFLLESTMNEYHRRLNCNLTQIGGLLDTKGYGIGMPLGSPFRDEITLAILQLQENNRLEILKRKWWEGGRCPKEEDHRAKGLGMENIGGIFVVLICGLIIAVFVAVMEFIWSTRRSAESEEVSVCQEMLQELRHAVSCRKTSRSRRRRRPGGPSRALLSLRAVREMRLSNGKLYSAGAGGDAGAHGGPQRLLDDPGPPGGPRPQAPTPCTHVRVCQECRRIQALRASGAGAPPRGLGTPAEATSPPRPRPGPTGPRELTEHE
# T2: GluK2 amino terminal domain (ATD) G215N/M217T, DyLight 488-labeled (UniProt P42260 32-420, G215N | M217T, DyLight 488 (NHS ester-activated), labeling ratios typically 0.9-1.3, sites not stated)
# T2 construct: signal peptide in the construct; GluK2 kainate receptor ATD cDNA with native signal peptide, last residue Lys389; N-linked glycosylation site inserted in the lateral face; Same construct as m3, chemically labeled; also called DL-GluK2; DyLight 488-labeled GluK2; source: HEK cell suspension cultures, transient transfection (PEI), secreted into medium; purified (Ni2+ HiTrap chelating, thrombin …)
# T2 sequence (looked up): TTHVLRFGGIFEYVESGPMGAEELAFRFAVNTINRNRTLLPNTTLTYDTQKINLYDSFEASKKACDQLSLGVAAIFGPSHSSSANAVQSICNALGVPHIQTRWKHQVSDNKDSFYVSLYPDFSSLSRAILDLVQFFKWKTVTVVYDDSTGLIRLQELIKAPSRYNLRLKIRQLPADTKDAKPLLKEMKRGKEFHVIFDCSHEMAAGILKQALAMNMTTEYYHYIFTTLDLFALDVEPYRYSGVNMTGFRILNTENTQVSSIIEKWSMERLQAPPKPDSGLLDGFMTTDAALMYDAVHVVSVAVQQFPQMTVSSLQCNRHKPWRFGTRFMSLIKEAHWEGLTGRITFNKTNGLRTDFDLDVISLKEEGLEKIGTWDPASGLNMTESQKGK
# B1: GluK3 amino terminal domain (ATD) T221N/Y223S, DyLight 488-labeled (domain or fragment, UniProt P42264 32-423, looked up)
# chain: MPHVIRIGGIFEYADGPNAQVMNAEEHAFRFSANIINRNRTLLPNTTLTYDIQRIHFHDSFEATKKACDQLALGVVAIFGPSQGSCTNAVQSICNALEVPHIQLRWKHHPLDNKDTFYVNLYPDYASLSHAILDLVQSLKWRSATVVYDDSTGLIRLQELIMAPSRYNIRLKIRQLPIDSDDSRPLLKEMKRGREFRIIFDCSHTMAAQILKQAMAMGMMNESYHFIFTTLDLYALDLEPYRYSGVNLTGFRILNVDNAHVSAIVEKWSMERLQAAPRAESGLLDGVMMTDAALLYDAVHIVSVCYQRASQMTVNSLQCHRHKPWRFGGRFMNFIKEAQWEGLTGRIVFNKTSGLRTDFDLDIISLKEDGLEKVGVWSPADGLNITEVAKGR
# modifications: DyLight 488 (NHS ester-activated), labeling ratios typically 0.9-1.3, sites not stated
# notes: signal peptide in the construct; GluK3 kainate receptor ATD cDNA with native signal peptide, last residue Arg392; N-linked glycosylation site inserted in the lateral face; also called DL-GluK3; DL GluK3; source: HEK cell suspension cultures, transient transfection (PEI), secreted into medium; purified (Ni2+ HiTrap chelating, thrombin digestion, ion exchange); labeled, Superdex 75
# B2: EGFP-GluA1 amino terminal domain fusion protein (domain or fragment, UniProt P19490 19-21, looked up)
# chain: VGANFPNNIQIGGLFPNQQSQEHAAFRFALSQLTEPPKLLPQIDIVNISDSFEMTYRFCSQFSKGVYAIFGFYERRTVNMLTSFCGALHVCFITPSFPVDTSNQFVLQLRPELQEALISIIDHYKWQTFVYIYDADRGLSVLQRVLDTAAEKNWQVTAVNILTTTEEGYRMLFQDLEKKKERLVVVDCESERLNAILGQIVKLEKNGIGYHYILANLGFMDIDLNKFKESGANVTGFQLVNYTDTIPARIMQQWRTSDSRDHTRVDWKRPKYTSALTYDGVKVMAEAFQSLRRQRIDISRRGNAGDCLANPAVPWGQGIDIQRALQQVRFEGLTGNVQFNEKGRRTNYTLHVIEMKHDGIRKIGYWNEDDKFVPAATDAQAGGDNSSVQ
# notes: signal peptide in the construct; GluA1 signal peptide and ATD, residues Met1-Phe21, before SGSG-EGFP; GluA1 AMPA receptor ATD, residues Val17-Gln405, after EGFP-SGSG; The two printed ranges overlap (17-21); also called GluA1 ATD-EGFP; GluA1-EGFP fusion protein; source: Sf9 insect cells, baculovirus (pFastBac1), secreted into medium; purified (Ni2+ HiTrap chelating, thrombin digestion, ion …)
# B3: GluK2 amino terminal domain (ATD) G215N/M217T, unlabeled (domain or fragment, UniProt P42260 32-420, looked up)
# chain: T2 sequence (looked up)
# notes: signal peptide in the construct; GluK2 kainate receptor ATD cDNA with native signal peptide, last residue Lys389; N-linked glycosylation site inserted in the lateral face; also called UL GluK2; GluK2 ATD; source: HEK cell suspension cultures, transient transfection (PEI), secreted into medium; purified (Ni2+ HiTrap chelating, thrombin digestion, ion exchange)
# Columns and labels:
# [1] = target: GluK1 amino terminal domain (ATD) G213N/M215T, DyLight 488-labeled; assay: AUC; fluorescence-detected sedimentation velocity (FDS-SV), tracer titration for self-association: 0.2-1 nM DyLight 488-labeled ATD with a series of the same unlabeled ATD; sw isotherm fit with monomer-dimer model (dimer to monomers); 20 °C, 50,000 rpm, 0.1 mg/mL BSA
# [2] = target: GluA2 amino terminal domain (ATD), DyLight 488-labeled; assay: AUC; direct Lamm equation fits, done here, of previously reported SV data for GluA2 (Zhao et al., 2013d) and GluA3 (Zhao et al., 2012); homodimer
# [3] = target: EGFP-GluA1 amino terminal domain fusion protein (UniProt P19490); assay: AUC; FDS-SV titration for hetero-dimerization: constant low concentration (50 pM-1 nM) of the ATD carrying the fluorophore, unlabeled partner from 0.2 nM up to µM; sw isotherm fit with coupled competitive homo- and hetero-dimerization model, homodimer KD fixed; 20 °C, 50,000 rpm, 0.1 mg/mL BSA
# [4] = target: GluA2 amino terminal domain (ATD), DyLight 488-labeled; assay: AUC; homodimer KD of GluA2 as given in Table 2 under UL GluA2 and DL-GluA2; the experiment itself is not described in this paper
# [5] = target: GluK4 amino terminal domain (ATD), unlabeled (UniProt Q01812); assay: AUC; sedimentation velocity with absorbance detection at 280 nm, unlabeled GluK4 0.3-29 µM; 20 °C, 50,000 rpm
# [6] = target: GluK1 amino terminal domain (ATD) G213N/M215T, DyLight 488-labeled; assay: AUC; FDS-SV titration for hetero-dimerization: constant low concentration (50 pM-1 nM) of the ATD carrying the fluorophore, unlabeled partner from 0.2 nM up to µM; sw isotherm fit with coupled competitive homo- and hetero-dimerization model, homodimer KD fixed; 20 °C, 50,000 rpm, 0.1 mg/mL BSA
# [7] = target: GluK2 amino terminal domain (ATD) G215N/M217T, DyLight 488-labeled (UniProt P42260); assay: as above
# [8] = target: GluK2 ATD (Rattus norvegicus) (UniProt P42260); conditions: cited from earlier work
# [9] = target: GluK5 ATD (Rattus norvegicus) (UniProt Q63273); conditions: cited from earlier work
# [10] = target: GluA3 amino terminal domain (ATD), unlabeled; assay: AUC; direct Lamm equation fits, done here, of previously reported SV data for GluA2 (Zhao et al., 2013d) and GluA3 (Zhao et al., 2012); homodimer
# [11] = target: GluA2 amino terminal domain (ATD), DyLight 488-labeled; assay: AUC; FDS-SV titration for hetero-dimerization: constant low concentration (50 pM-1 nM) of the ATD carrying the fluorophore, unlabeled partner from 0.2 nM up to µM; sw isotherm fit with coupled competitive homo- and hetero-dimerization model, homodimer KD fixed; 20 °C, 50,000 rpm, 0.1 mg/mL BSA
# [12] = target: EGFP-GluA4 amino terminal domain fusion protein (UniProt P19493); assay: as above
# Sequence of EGFP-GluA4 amino terminal domain fusion protein (P19493 21-413): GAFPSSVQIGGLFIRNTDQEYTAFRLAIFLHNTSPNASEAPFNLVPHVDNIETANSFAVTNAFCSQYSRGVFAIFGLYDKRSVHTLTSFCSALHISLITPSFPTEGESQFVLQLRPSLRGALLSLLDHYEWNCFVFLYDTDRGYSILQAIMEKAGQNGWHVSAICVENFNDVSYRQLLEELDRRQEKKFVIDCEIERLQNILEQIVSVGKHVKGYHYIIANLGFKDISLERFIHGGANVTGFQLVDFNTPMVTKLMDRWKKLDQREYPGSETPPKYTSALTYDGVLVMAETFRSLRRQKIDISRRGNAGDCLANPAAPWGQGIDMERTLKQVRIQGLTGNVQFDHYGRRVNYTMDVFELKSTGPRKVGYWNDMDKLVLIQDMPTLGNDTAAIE
# [13] = target: the molecule itself; assay: AUC; FDS-SV, dilution series of the fluorescent protein alone (DyLight 488-GluK3 50 pM-1.2 µM; EGFP-GluA1 100 pM-1.2 µM; EGFP-GluA4 500 pM-1.2 µM); c(s) and sw isotherm, monomer-dimer model (dimer to monomers); 20 °C, 50,000 rpm, 0.1 mg/mL BSA
# [14] = target: the molecule itself; assay: as above; remark: listed apart in the source
# [15] = target: the molecule itself; assay: as above; remark: listed apart in the source
# [16] = target: T1, GluK5 amino terminal domain (ATD), DyLight 488-labeled; assay: AUC; FDS-SV titration for hetero-dimerization: constant low concentration (50 pM-1 nM) of the ATD carrying the fluorophore, unlabeled partner from 0.2 nM up to µM; sw isotherm fit with coupled competitive homo- and hetero-dimerization model, homodimer KD fixed; 20 °C, 50,000 rpm, 0.1 mg/mL BSA
# [17] = target: T2, GluK2 amino terminal domain (ATD) …; assay: AUC; fluorescence-detected sedimentation velocity (FDS-SV), tracer titration for self-association: 0.2-1 nM DyLight 488-labeled ATD with a series of the same unlabeled ATD; sw isotherm fit with monomer-dimer model (dimer to monomers); 20 °C, 50,000 rpm, 0.1 mg/mL BSA; conditions: both partners purified
molecule,measurement,setting,value
"GluK1 amino terminal domain (ATD) G213N/M215T, unlabeled (domain or fragment)",Kd,[1],1.2 µM
"GluA2 amino terminal domain (ATD), unlabeled (domain or fragment)",koff,[2],> 0.003 s⁻¹
same,kon,[2],> 140000 M⁻¹ s⁻¹
same,Kd,[3],0.0029 µM
same,Kd,[4],0.0211 µM
"GluK4 amino terminal domain (ATD), unlabeled (from UniProt Q01812 21-399) (domain or fragment)",Kd,[5],> 1000 µM
same,Kd,[6],0.146 µM
same,Kd,[7],0.057 µM
"GluK5 amino terminal domain (ATD), unlabeled (domain or fragment)",Kd,[6],0.018 µM
same,Kd,[7],0.012 µM
GluK2 ATD (from UniProt P42260),Kd,[8],0.25 µM
GluK5 ATD (from UniProt Q63273),Kd,[9],350 µM
"GluA3 amino terminal domain (ATD), unlabeled (domain or fragment)",koff,[10],> 0.003 s⁻¹
same,Kd,[11],0.0013 µM
same,Kd,[12],0.091 µM
same,Kd,[3],0.0083 µM
B1,stoichiometry N,[13],2
same,Kd,[14],< 0.05 nM
B2,Kd,[15],0.0284 µM
B3,Kd,[16],0.0094 µM
same,Kd,[6],1.8 µM
same,Kd,[17],0.163 µM
